In patent US20260201033A1 (LTZ THERAPEUTICS, published 2026):

B1: CD79b/5C7 (2+2 A) Fc-silenced (bispecific antibody, human IgG1, kappa, L234A L235A)
heavy: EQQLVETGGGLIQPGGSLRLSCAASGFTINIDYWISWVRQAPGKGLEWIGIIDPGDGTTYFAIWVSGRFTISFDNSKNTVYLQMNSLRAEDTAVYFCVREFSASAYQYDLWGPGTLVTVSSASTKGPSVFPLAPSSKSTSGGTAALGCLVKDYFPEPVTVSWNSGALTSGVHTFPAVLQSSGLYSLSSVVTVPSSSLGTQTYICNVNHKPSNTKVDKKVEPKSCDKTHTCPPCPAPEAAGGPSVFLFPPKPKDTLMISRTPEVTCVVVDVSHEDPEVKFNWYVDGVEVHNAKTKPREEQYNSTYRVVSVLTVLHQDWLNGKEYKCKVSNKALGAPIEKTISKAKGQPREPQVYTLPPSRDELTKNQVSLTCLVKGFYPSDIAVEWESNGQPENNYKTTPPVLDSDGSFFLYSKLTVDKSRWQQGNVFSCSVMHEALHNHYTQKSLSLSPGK
light: ELVMTQSPATLSVSPGERATLSCRASEDIENYLAWYQQKPGQPPRLLIYRASTLSSGVPARFSGSGSGTEFTLTISSLQSEDFAVYYCQQGYRNSNVDNPFGGGTKVEIKRTVAAPSVFIFPPSDEQLKSGTASVVCLLNNFYPREAKVQWKVDNALQSGNSQESVTEQDSKDSTYSLSSTLTLSKADYEKHKVYACEVTHQGLSSPVTKSFNRGECGGGGSGGGGSGGGGSDIQMTQSPSSLSASVGDRVTITCQASESVDRNNRLAWFQQKPGKPPKLLIYTTSTLASGVPSRFSGSGSGTDFTLTISSLQPEDVATYYCAGYRGAHTDGDAFGGGTKVEIKGGGGSGGGGSGGGGSGGGGSEQQLVESGGGLVKPGGSLRLSCAASGFSFSRSSYMCWVRQAPGKGLEWIGCLSVGDGHTYYASWAKGRFTISKDSAKNSVYLQMNSLRAEDTAVYFCARAPSYSGDGGHGYDLWGPGTLVTVSS
B2: CD79b/5C7 (1+1 A) Fc-optimized (bispecific antibody, human IgG1, kappa)
heavy 1: EQQLVETGGGLIQPGGSLRLSCAASGFTINIDYWISWVRQAPGKGLEWIGIIDPGDGTTYFAIWVSGRFTISFDNSKNTVYLQMNSLRAEDTAVYFCVREFSASAYQYDLWGPGTLVTVSSASTKGPSVFPLAPSSKSTSGGTAALGCLVKDYFPEPVTVSWNSGALTSGVHTFPAVLQSSGLYSLSSVVTVPSSSLGTQTYICNVNHKPSNTKVDKKVEPKSCDKTHTCPPCPAPELLAGPSVFLFPPKPKDTLMISRTPEVTCVVVDVSHEDPEVKFNWYVDGVEVHNAKTKPREEQYNSTYRVVSVLTVLHQDWLNGKEYKCKVSNKALPLPEEKTISKAKGQPREPQVYTLPPSRDELTKNQVSLSCAVKGFYPSDIAVEWESNGQPENNYKTTPPVLDSDGSFFLVSKLTVDKSRWQQGNVFSCSVMHEALHNHYTQKSLSLSPGK
heavy 2: EQQLVESGGGLVKPGGSLRLSCAASGFSFSRSSYMCWVRQAPGKGLEWIGCLSVGDGHTYYASWAKGRFTISKDSAKNSVYLQMNSLRAEDTAVYFCARAPSYSGDGGHGYDLWGPGTLVTVSSASTKGPSVFPLAPSSKSTSGGTAALGCLVKDYFPEPVTVSWNSGALTSGVHTFPAVLQSSGLYSLSSVVTVPSSSLGTQTYICNVNHKPSNTKVDKKVEPKSCDKTHTCPPCPAPELLAGPSVFLFPPKPKDTLMISRTPEVTCVVVDVSHEDPEVKFNWYVDGVEVHNAKTKPREEQYNSTYRVVSVLTVLHQDWLNGKEYKCKVSNKALPLPEEKTISKAKGQPREPQVYTLPPSRDELTKNQVSLWCLVKGFYPSDIAVEWESNGQPENNYKTTPPVLDSDGSFFLYSKLTVDKSRWQQGNVFSCSVMHEALHNHYTQKSLSLSPGK
light 1: ELVMTQSPATLSVSPGERATLSCRASEDIENYLAWYQQKPGQPPRLLIYRASTLSSGVPARFSGSGSGTEFTLTISSLQSEDFAVYYCQQGYRNSNVDNPFGGGTKVEIKRTVAAPSVFIFPPSDEQLKSGTASVVCLLNNFYPREAKVQWKVDNALQSGNSQESVTEQDSKDSTYSLSSTLTLSKADYEKHKVYACEVTHQGLSSPVTKSFNRGEC
light 2: DIQMTQSPSSLSASVGDRVTITCQASESVDRNNRLAWFQQKPGKPPKLLIYTTSTLASGVPSRFSGSGSGTDFTLTISSLQPEDVATYYCAGYRGAHTDGDAFGGGTKVEIKRTVAAPSVFIFPPSDEQLKSGTASVVCLLNNFYPREAKVQWKVDNALQSGNSQESVTEQDSKDSTYSLSSTLTLSKADYEKHKVYACEVTHQGLSSPVTKSFNRGEC

Experiments:
[1] = target: T1, CD79b on Ramos cells and on endogenous B cells of human PBMCs (human, UniProt P40259 29-229); experiment: cell-based or functional assay
T1 sequence (looked up): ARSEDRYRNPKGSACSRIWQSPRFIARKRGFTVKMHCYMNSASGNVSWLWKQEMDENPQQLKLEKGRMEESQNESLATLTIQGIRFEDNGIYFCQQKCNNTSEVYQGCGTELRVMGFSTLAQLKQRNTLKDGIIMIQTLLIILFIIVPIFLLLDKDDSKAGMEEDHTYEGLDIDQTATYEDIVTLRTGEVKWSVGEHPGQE

[2] = target: T1, CD79b on Ramos cells and on endogenous …; experiment: cell-based or functional assay; remark: listed apart in the source

Binder | IC50 (nM), Ramos cell killing by M0 macrophages, Donor 159 [1] | IC50 (nM), Ramos cell killing by M0 macrophages, Donor 161 [1] | IC50 (nM), Ramos cell killing by PBMCs (test 2), Donor 234 [2]
B1 | 0.002 nM | 0.0006 nM | 
B2 |  |  | 0.338 nM
